B1: human mAb 1227 (antibody, V domains shown)
VH: QVQLVQSGGGMVQPGGSLSLSCAASGFTLSNYAMTWVRQAPGKGLEWVSSIGGSGGTTYYADSVKGRFTISRDSSMNTLYLQMSNLRAGDTAVYYCAKDKTRTLRLGYSGMDVWGQGTTVTVSS
VL: DIRLTQSPSSLSASVGDRVTITCRASQSISSYLNWYQQKPGKAPDLLIYGASSLQSGVPSRFSGSGSGTDFTLTISSLQPEDFGNYYCQQSFSTPRTFGQGTKVEL
notes: also called A1227
B2: human mAb 1431 (antibody, V domains shown)
VH: QVQLVQSGGGLVQPGGSLRLSCAASGFAFSNHGMHWVRQAPGKGLEWLSYISGSTGAIHYANSVKGRFTISRDNARNSLDLQMNSLGDEDTAVYYCARDGPRPDGTGYAGPSNDYWGQGTLVSVSS
VL: EIVLTQSPASLSLSPGERATLSCKASRSISIYLAWYQQKPGQAPRLLIYDASYRAIGIPARFSGSGSGTDFTLTISNLEPEDFAVYYCQHRSSWPALTFGGGTKVEI
notes: also called A1431

How the values were obtained:
Test in all cases: multiplex microsphere immunoassay
GII.4/Den Haag VLP = biological target: T1, GII.4/Den Haag VLP (norovirus Hu/GII.4/DenHaag89/2006/NL, UniProt P54635 1-539)
T1 construct: also called Hu/GII.4/DenHaag89/2006/NL
T1 chain: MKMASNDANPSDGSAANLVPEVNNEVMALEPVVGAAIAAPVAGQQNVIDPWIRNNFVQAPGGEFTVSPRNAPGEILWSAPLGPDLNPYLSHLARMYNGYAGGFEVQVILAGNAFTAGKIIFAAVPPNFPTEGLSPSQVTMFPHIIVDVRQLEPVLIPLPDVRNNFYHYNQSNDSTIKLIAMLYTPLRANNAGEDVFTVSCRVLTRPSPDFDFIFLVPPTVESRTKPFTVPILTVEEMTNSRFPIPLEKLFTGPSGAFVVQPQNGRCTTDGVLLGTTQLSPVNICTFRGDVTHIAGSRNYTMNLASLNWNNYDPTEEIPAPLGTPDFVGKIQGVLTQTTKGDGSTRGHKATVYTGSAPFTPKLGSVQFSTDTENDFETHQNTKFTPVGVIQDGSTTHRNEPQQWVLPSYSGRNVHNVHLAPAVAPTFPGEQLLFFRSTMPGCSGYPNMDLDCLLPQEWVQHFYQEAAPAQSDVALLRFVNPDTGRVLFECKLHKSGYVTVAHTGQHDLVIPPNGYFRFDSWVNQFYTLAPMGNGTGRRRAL

GII.4/Yerseke VLP = biological target: T2, GII.4/Yerseke VLP (norovirus Hu/GII.4/Yerseke38/2006/NL, UniProt P54635 1-539)
T2 construct: also called Hu/GII.4/Yerseke38/2006/NL
T2 chain: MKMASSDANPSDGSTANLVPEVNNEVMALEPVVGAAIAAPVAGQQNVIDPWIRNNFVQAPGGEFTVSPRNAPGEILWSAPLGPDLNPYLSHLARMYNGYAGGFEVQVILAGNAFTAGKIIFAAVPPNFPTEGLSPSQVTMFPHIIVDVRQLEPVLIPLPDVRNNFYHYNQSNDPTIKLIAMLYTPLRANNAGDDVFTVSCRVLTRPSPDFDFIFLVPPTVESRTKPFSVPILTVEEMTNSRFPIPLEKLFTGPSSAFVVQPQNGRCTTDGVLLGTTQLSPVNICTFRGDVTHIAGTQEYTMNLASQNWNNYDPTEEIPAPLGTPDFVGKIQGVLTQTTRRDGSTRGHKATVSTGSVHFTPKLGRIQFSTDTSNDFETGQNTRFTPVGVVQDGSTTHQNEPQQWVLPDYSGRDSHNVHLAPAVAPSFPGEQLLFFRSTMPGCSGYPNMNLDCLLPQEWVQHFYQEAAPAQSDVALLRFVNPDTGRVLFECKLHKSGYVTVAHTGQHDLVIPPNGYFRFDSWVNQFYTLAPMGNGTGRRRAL

GII.12 VLP = biological target: T3, GII.12 VLP (norovirus Hu/GII.12 strain E5152)
T3 construct: also called Hu/GII.12 strain E5152
T3 chain: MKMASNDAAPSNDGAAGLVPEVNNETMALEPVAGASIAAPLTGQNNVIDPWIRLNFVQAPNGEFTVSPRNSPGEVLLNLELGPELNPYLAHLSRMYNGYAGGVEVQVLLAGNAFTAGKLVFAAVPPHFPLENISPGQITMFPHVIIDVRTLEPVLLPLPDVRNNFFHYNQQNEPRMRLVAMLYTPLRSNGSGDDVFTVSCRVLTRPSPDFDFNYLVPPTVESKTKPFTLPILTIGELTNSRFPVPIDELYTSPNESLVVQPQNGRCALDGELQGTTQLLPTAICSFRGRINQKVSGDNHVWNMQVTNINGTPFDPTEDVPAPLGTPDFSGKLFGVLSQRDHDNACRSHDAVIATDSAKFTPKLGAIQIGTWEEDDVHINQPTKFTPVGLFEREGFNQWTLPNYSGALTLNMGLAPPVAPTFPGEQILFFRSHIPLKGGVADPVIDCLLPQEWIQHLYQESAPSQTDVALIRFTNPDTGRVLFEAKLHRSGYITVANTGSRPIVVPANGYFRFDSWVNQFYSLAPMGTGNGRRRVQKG

GII.3 VLP = biological target: T4, GII.3 VLP (norovirus Hu/GII.3/NIHIC8.1/2011/USA)
T4 construct: also called Hu/GII.3/NIHIC8.1/2011/USA
T4 chain: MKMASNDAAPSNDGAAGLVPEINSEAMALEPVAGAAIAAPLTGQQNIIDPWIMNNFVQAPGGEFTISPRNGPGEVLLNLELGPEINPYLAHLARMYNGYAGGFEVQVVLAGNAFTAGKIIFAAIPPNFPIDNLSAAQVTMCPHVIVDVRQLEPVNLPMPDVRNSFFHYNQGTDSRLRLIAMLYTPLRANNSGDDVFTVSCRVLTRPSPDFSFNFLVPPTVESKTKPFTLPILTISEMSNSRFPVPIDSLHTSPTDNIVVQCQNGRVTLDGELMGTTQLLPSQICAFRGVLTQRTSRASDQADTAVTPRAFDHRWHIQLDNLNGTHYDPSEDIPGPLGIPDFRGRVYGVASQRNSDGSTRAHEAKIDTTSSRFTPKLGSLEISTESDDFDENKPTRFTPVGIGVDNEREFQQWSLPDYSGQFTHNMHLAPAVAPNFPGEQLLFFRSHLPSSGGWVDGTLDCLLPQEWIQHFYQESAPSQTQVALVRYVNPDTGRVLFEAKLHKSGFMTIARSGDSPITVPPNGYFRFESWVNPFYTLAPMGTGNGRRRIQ

GII.6 VLP = biological target: T5, GII.6 VLP (norovirus Hu/GII.6/Ehime120246/2012/JP)
T5 construct: also called Hu/GII.6/Ehime120246/2012/JP
T5 chain: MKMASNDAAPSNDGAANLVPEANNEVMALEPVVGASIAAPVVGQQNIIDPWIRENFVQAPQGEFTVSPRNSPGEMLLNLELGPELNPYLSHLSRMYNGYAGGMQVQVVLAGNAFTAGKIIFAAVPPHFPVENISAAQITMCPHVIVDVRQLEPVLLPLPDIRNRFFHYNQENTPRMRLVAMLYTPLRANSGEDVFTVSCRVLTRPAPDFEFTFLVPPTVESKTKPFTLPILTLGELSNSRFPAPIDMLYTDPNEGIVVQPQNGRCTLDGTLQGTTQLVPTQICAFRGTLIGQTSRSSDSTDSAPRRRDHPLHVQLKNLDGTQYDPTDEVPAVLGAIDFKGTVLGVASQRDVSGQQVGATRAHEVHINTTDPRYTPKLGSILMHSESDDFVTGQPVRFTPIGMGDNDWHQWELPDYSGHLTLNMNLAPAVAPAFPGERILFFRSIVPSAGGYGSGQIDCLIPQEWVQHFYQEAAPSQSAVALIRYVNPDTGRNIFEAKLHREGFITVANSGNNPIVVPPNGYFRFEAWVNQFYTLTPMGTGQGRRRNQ

Binder | EC50 (GII.4/Den Haag VLP) | EC50 (GII.4/Yerseke VLP) | EC50 (GII.12 VLP) | EC50 (GII.3 VLP) | EC50 (GII.6 VLP) | binding result (GII.12 VLP) | binding result (GII.3 VLP) | binding result (GII.6 VLP)
B1 | 0.014 µg/mL | 0.002 µg/mL | 0.026 µg/mL | 0.006 µg/mL | 0.071 µg/mL | – | – | –
B2 | 0.024 µg/mL | 0.007 µg/mL | – | – | – | no binding | no binding | no binding

Source: US20240402174A1 (Takeda / Millennium, published 2024)
